PMC9464592 (Nature, 2022)

Legend:
Experiment in all cases: cryo-EM structure
tag-free WDR59 = target: T1, tag-free WDR59 (human, UniProt Q6PJI9 1-974)
T1 sequence: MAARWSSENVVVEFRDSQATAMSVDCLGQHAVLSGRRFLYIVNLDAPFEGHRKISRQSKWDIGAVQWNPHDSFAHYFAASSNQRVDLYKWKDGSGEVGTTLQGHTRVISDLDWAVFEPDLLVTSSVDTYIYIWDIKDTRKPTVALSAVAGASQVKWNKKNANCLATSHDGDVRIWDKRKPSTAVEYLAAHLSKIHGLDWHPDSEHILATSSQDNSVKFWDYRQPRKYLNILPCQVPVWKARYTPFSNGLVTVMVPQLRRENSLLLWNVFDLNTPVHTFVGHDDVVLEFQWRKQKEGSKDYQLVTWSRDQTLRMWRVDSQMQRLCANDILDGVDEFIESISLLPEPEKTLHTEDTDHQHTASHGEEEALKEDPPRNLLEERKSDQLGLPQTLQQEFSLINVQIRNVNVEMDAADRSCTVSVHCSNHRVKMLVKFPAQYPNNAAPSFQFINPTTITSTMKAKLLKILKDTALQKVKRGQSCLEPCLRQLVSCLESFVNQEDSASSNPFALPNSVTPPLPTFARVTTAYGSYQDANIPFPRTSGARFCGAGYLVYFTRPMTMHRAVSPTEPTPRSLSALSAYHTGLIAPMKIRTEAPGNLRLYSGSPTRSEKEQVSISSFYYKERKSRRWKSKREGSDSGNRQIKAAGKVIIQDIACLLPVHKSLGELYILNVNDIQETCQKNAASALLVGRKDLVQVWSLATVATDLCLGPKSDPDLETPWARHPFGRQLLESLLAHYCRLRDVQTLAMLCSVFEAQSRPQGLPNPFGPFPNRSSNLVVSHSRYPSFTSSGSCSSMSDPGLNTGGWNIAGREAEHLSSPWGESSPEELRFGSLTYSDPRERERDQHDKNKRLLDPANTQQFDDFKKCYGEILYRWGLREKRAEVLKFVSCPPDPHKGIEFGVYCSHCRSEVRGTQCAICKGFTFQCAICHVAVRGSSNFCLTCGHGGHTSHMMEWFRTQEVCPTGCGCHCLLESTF

tag-free WDR24 = target: T2, tag-free WDR24 (human, UniProt Q96S15 1-790)
T2 sequence: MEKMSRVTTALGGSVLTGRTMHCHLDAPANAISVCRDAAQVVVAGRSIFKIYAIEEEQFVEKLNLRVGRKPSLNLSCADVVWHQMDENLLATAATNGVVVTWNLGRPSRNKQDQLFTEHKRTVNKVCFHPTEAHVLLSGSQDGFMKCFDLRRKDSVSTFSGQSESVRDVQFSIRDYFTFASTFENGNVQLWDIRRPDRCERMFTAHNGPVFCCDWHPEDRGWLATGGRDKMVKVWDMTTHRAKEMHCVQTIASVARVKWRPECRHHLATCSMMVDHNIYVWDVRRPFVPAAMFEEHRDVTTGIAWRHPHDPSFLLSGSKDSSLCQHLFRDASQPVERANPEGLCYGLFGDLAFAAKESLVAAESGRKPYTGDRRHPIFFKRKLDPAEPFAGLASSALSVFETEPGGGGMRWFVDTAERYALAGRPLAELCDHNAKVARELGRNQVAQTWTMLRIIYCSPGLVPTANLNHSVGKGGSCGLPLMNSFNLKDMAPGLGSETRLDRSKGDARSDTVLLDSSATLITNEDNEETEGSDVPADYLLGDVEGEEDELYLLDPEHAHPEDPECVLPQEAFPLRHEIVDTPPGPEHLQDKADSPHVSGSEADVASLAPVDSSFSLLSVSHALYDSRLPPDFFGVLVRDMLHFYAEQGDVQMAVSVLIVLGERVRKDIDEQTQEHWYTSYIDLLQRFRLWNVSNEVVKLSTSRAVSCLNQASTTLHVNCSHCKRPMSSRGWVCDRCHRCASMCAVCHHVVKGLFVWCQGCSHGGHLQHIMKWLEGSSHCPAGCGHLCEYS

[1] = target: T3, N-terminally Flag-tagged MIOS (human, UniProt Q9NXC5 1-875)
T3 sequence: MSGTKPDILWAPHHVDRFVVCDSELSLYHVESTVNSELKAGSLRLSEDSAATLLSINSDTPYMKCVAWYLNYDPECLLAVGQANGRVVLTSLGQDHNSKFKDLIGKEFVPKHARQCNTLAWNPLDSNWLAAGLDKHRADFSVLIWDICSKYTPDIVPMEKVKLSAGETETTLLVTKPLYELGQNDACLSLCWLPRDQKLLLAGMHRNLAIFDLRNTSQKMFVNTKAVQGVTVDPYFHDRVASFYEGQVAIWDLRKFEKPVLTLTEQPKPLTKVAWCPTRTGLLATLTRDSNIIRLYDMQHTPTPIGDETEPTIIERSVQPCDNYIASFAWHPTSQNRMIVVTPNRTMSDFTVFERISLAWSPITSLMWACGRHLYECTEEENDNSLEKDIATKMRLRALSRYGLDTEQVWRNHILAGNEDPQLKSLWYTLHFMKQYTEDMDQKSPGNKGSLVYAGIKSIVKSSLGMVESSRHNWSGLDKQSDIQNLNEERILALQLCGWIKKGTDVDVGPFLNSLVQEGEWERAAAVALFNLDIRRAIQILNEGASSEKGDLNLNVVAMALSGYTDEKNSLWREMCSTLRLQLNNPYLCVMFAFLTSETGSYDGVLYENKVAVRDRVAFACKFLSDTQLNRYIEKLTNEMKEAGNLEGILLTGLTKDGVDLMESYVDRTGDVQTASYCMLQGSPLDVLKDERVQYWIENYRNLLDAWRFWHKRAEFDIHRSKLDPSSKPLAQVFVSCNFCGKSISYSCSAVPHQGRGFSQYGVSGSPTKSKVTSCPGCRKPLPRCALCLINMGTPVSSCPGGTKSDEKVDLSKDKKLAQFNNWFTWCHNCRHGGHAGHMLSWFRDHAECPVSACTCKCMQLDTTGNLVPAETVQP

Measured: binding result

B1: tag-free SEC13 (natural protein, human)
chain: MVSVINTVDTSHEDMIHDAQMDYYGTRLATCSSDRSVKIFDVRNGGQILIADLRGHEGPVWQVAWAHPMYGNILASCSYDRKVIIWREENGTWEKSHEHAGHDSSVNSVCWAPHDYGLILACGSSDGAISLLTYTGEGQWEVKKINNAHTIGCNAVSWAPAVVPGSLIDHPSGQKPNYIKRFASGGCDNLIKLWKEEEDGQWKEEQKLEAHSDWVRDVAWAPSIGLPTSTIASCSQDGRVFIWTCDDASSNTWSPKLLHKFNDVVWHVSWSITANILAVSGGDNKVTLWKESVDGQWVCISDVNKGQGSVSASVTEGQQNEQ
binds: all assays above
